Key:
[1] = biological target: GSTcJun(wt), glutathione-S-transferase fused to c-Jun AA 1-223 [GST: P08515]
[2] = biological target: GSTvJun, GST fused to the region of v-Jun equivalent to chicken c-Jun AA 1-144 [GST: P08515]
[3] = biological target: T1, GST-cJun(1-79), GST fused to c-Jun AA 1-79
T1 chain: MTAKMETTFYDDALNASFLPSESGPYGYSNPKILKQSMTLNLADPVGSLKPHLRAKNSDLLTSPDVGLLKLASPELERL

[4] = biological target: T2, GSTcJun(Ala63/73), GST fused to c-Jun AA 1-223 with Ser 63 and Ser 73 converted to alanines
T2 chain: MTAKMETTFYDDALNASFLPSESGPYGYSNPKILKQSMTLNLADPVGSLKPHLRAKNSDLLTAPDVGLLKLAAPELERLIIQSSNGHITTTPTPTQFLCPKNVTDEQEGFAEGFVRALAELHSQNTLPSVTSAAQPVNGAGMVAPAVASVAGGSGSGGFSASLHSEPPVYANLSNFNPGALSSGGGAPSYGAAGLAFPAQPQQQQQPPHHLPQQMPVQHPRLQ

[5] = biological target: T3, GST-cJun(43-223), GST fused to c-Jun AA 43-223
T3 chain: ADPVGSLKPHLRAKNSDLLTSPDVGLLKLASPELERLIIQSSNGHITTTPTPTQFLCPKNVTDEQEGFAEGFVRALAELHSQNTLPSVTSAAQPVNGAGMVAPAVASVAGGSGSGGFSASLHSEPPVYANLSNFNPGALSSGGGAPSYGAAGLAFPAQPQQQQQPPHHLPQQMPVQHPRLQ

[6] = biological target: myelin basic protein (MBP)
[7] = biological target: GAL4-cJun(56-223) (yeast; human), P04386; test: cell-based or functional assay
[8] = biological target: GAL4-cJun(33-223) (yeast; human), P04386; test: cell-based or functional assay
[9] = biological target: GAL4-cJun(43-223) (yeast; human), P04386; test: cell-based or functional assay
[10] = biological target: T4, GSTcJun(33-223), GST fused to c-Jun AA 33-223
T4 chain: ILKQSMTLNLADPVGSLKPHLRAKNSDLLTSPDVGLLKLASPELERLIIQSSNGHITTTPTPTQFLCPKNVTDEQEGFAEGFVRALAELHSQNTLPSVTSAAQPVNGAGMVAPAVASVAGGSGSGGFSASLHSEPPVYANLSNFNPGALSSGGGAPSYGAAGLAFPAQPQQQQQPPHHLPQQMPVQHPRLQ

B1: epitope-tagged JNK1 (Flag epitope Asp-Tyr-Lys-Asp-Asp-Asp-Asp-Lys inserted between codons 1 and 2), expressed in COS cells (protein)
chain: MDYKDDDDKSRSKRDNNFYSVEIGDSTFTVLKRYQNLKPIGSGAQGIVCAAYDAILERNVAIKKLSRPFQNQTHAKRAYRELVLMKCVNHKNIIGLLNVFTPQKSLEEFQDVYIVMELMDANLCQVIQMELDHERMSYLLYQMLCGIKHLHSAGIIHRDLKPSNIVVKSDCTLKILDFGLARTAGTSFMMTPYVVTRYYRAPEVILGMGYKENVDLWSVGCIMGEMVCHKILFPGRDYIDQWNKVIEQLGTPCPEFMKKLQPTVRTYVENRPKYAGYSFEKLFPDVLFPADSEHNKLKASQARDLLSKMLVIDASKRISVDEALQHPYINVWYDPSEAEAPPPKIPDKQLDEREHTIEEWKELIYKEVMDLEERTKNGVIRGQPSPLAQVQQ
phosphorylation, immunecomplex kinase assay [1]: JNK1 efficiently phosphorylated GST-cJun fusion proteins containing residues 1-223 and 1-79 of c-Jun
phosphorylation, immunecomplex kinase assay [2]: both GST-vJun and myelin basic protein (MBP) are very poor substrates for JNK1
phosphorylation, immunecomplex kinase assay [3]: JNK1 efficiently phosphorylated GST-cJun fusion proteins containing residues 1-223 and 1-79 of c-Jun
phosphorylation, immunecomplex kinase assay [4]: Replacement of Ser-63 and Ser-73 with Ala also decreased the observed phosphorylation
phosphorylation, immunecomplex kinase assay [5]: a deletion of c-Jun NH2-terminal sequences including the d-domain (residues 1-42) caused a marked decrease in phosphorylation by JNK1
phosphorylation, immunecomplex kinase assay [6]: both GST-vJun and myelin basic protein (MBP) are very poor substrates for JNK1

B2: c-Jun N-terminal protein kinase (JNK), 46 kD form, endogenous kinase from cell extracts, P45983-2 1-384 (enzyme)
chain: MSRSKRDNNFYSVEIGDSTFTVLKRYQNLKPIGSGAQGIVCAAYDAILERNVAIKKLSRPFQNQTHAKRAYRELVLMKCVNHKNIIGLLNVFTPQKSLEEFQDVYIVMELMDANLCQVIQMELDHERMSYLLYQMLCGIKHLHSAGIIHRDLKPSNIVVKSDCTLKILDFGLARTAGTSFMMTPYVVTRYYRAPEVILGMGYKENVDLWSVGCIMGEMVCHKILFPGRDYIDQWNKVIEQLGTPCPEFMKKLQPTVRTYVENRPKYAGYSFEKLFPDVLFPADSEHNKLKASQARDLLSKMLVIDASKRISVDEALQHPYINVWYDPSEAEAPPPKIPDKQLDEREHTIEEWKELIYKEVMDLEERTKNGVIRGQPSPLAQVQQ
Ha-Ras responsiveness, CAT activity of 5xGAL4-Elb-CAT reporter in F9 cells (fold induction) [7]: 5.2
UV responsiveness, CAT activity of 5xGAL4-Elb-CAT reporter in F9 cells [7]: 1.5 fold
Ha-Ras responsiveness, CAT activity of 5xGAL4-Elb-CAT reporter in F9 cells (fold induction) [8]: 9.8
Ha-Ras responsiveness, CAT activity of 5xGAL4-Elb-CAT reporter in F9 cells (fold induction) [9]: 5.2
UV responsiveness, CAT activity of 5xGAL4-Elb-CAT reporter in F9 cells [9]: 1.5 fold

B3: c-Jun N-terminal protein kinase (JNK), 46 kD form, endogenous kinase from cell extracts (protein)
chain: MSRSKRDNNFYSVEIGDSTFTVLKRYQNLKPIGSGAQGIVCAAYDAILERNVAIKKLSRPFQNQTHAKRAYRELVLMKCVNHKNIIGLLNVFTPQKSLEEFQDVYIVMELMDANLCQVIQMELDHERMSYLLYQMLCGIKHLHSAGIIHRDLKPSNIVVKSDCTLKILDFGLARTAGTSFMMTPYVVTRYYRAPEVILGMGYKENVDLWSVGCIMGEMVCHKILFPGRDYIDQWNKVIEQLGTPCPEFMKKLQPTVRTYVENRPKYAGYSFEKLFPDVLFPADSEHNKLKASQARDLLSKMLVIDASKRISVDEALQHPYINVWYDPSEAEAPPPKIPDKQLDEREHTIEEWKELIYKEVMDLEERTKNGVIRGQPSPLAQVQQ
phosphorylation in solid-phase kinase assay [4]: Phosphorylation of this protein was considerably lower than that of GSTcJun(wt)
phosphorylation of the GSTcJun fusion protein by bound kinase [10]: Removal of AA 1-32 decreased phosphorylation of GSTcJun but had only a small effect on kinase binding
